# Reference: article PMC9931023 (Journal of Food and Drug Analysis, 2021)
# B1: salt-induced kinase-3 (SIK3), endogenous in breast tissue (enzyme, UniProt Q9Y2K2-5 1-1321, looked up)
# chain: MAAAAASGAGGAAGAGTGGAGPAGRLLPPPAPGSPAAPAAVSPAAGQPRPPAPASRGPMPARIGYYEIDRTIGKGNFAVVKRATHLVTKAKVAIKIIDKTQLDEENLKKIFREVQIMKMLCHPHIIRLYQVMETERMIYLVTEYASGGEIFDHLVAHGRMAEKEARRKFKQIVTAVYFCHCRNIVHRDLKAENLLLDANLNIKIADFGFSNLFTPGQLLKTWCGSPPYAAPELFEGKEYDGPKVDIWSLGVVLYVLVCGALPFDGSTLQNLRARVLSGKFRIPFFMSTECEHLIRHMLVLDPNKRLSMEQICKHKWMKLGDADPNFDRLIAECQQLKEERQVDPLNEDVLLAMEDMGLDKEQTLQSLRSDAYDHYSAIYSLLCDRHKRHKTLRLGALPSMPRALAFQAPVNIQAEQAGTAMNISVPQVQLINPENQIVEPDGTLNLDSDEGEEPSPEALVRYLSMRRHTVGVADPRTEVMEDLQKLLPGFPGVNPQAPFLQVAPNVNFMHNLLPMQNLQPTGQLEYKEQSLLQPPTLQLLNGMGPLGRRASDGGANIQLHAQQLLKRPRGPSPLVTMTPAVPAVTPVDEESSDGEPDQEAVQSSTYKDSNTLHLPTERFSPVRRFSDGAASIQAFKAHLEKMGNNSSIKQLQQECEQLQKMYGGQIDERTLEKTQQQHMLYQQEQHHQILQQQIQDSICPPQPSPPLQAACENQPALLTHQLQRLRIQPSSPPPNHPNNHLFRQPSNSPPPMSSAMIQPHGAASSSQFQGLPSRSAIFQQQPENCSSPPNVALTCLGMQQPAQSQQVTIQVQEPVDMLSNMPGTAAGSSGRGISISPSAGQMQMQHRTNLMATLSYGHRPLSKQLSADSAEAHSLNVNRFSPANYDQAHLHPHLFSDQSRGSPSSYSPSTGVGFSPTQALKVPPLDQFPTFPPSAHQQPPHYTTSALQQALLSPTPPDYTRHQQVPHILQGLLSPRHSLTGHSDIRLPPTEFAQLIKRQQQQRQQQQQQQQQQEYQELFRHMNQGDAGSLAPSLGGQSMTERQALSYQNADSYHHHTSPQHLLQIRAQECVSQASSPTPPHGYAHQPALMHSESMEEDCSCEGAKDGFQDSKSSSTLTKGCHDSPLLLSTGGPGDPESLLGTVSHAQELGIHPYGHQPTAAFSKNKVPSREPVIGNCMDRSSPGQAVELPDHNGLGYPARPSVHEHHRPRALQRHHTIQNSDDAYVQLDNLPGMSLVAGKALSSARMSDAVLSQSSLMGSQQFQDGENEECGASLGGHEHPDLSDGSQHLNSSCYPSTCITDILLSYKHPEVSFSMEQAGV
# Target: p27 (Kip1), endogenous in breast tissue (human (endogenous in breast tissue …, UniProt P46527 1-198))
# Sequence (P46527 whole entry): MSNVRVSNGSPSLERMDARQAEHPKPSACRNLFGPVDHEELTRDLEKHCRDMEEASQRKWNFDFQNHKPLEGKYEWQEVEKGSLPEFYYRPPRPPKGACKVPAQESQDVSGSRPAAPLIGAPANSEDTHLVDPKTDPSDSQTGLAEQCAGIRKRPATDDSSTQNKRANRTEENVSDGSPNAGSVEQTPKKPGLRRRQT
# Experiment: FRET or BRET
binder,measurement,value
B1,FRET activity (fold),25.2 fold
